In patent US8008456B2, “Compositions containing, methods involving, and uses of non-natural amino acids and polypeptides” (Ambrx, Inc., priority 2004, dated 2011):
Like-named read-outs stand apart in the source and are kept apart here.

What was measured:
[1] = Intracellular concentration of non-natural amino acids (cellular uptake); type: in vitro ADME
Description: Non-natural amino acid uptake by a eukaryotic cell is one issue that is typically considered when designing and selecting non-natural amino acids, including but not limited to, for incorporation into a protein. […] Natural amino acids are taken up into the eukaryotic cell via a collection of protein-based transport systems. A rapid screen can be done which assesses which non-natural amino acids, if any, are taken up by cells (examples 15 & 16 herein illustrate non-limiting examples of tests which can be done on non-natural amino acids). See, e.g., the toxicity assays in, e.g., the U.S. Patent Publication No. 2004/198637 entitled “Protein Arrays,” which is herein incorporated by reference in its entirety, and Liu, D. R. & Schultz, P. G. (1999) Progress toward the evolution of an organism with an expanded genetic code. PNAS United States 96:4780-4785. Although uptake is easily analyzed with various assays, an alternative to designing non-natural amino acids that are amenable to cellular uptake pathways is to provide biosynthetic pathways to create amino acids in vivo.
(§1) This example provides results of four tests that were conducted on certain illustrative non-natural amino acids as an aid for predicting their properties for incorporation into non-natural amino acid polypeptides.

[2] = tested on: aminoacyl-tRNA synthetase (RS); experiment: RS test
Experimental: as §1

Oxime stability pH 4-8 = type: physicochemical
Experimental: as §1

[3] = Pharmacokinetic studies, single s.c. dose in rats, plasma growth hormone ELISA; type: in vivo; conditions: single-dose 1 mg/kg bolus s.c., normal male Sprague-Dawley rats; average (+/- standard deviation)
Experimental: Pharmacokinetic properties of PEG-modified growth hormone compounds were compared to each other and to nonPEGylated growth hormone in male Sprague-Dawley rats (261-425 g) obtained from Charles River Laboratories. Catheters were surgically installed into the carotid artery for blood collection. Following successful catheter installation, animals were assigned to treatment groups (three to six per group) prior to dosing. Animals were dosed subcutaneously with 1 mg/kg of compound in a dose volume of 0.41-0.55 ml/kg. Blood samples were collected at various time points via the indwelling catheter and into EDTA-coated microfuge tubes. Plasma was collected after centrifugation, and stored at −80° C. until analysis. Compound concentrations were measured using antibody sandwich growth hormone ELISA kits from either BioSource International (Camarillo, Calif.) or Diagnostic Systems Laboratories (Webster, Tex.). Concentrations were calculated using standards corresponding to the analog that was dosed. Pharmacokinetic parameters were estimated using the modeling program WinNonlin (Pharsight, version 4.1). Noncompartmental analysis with linear-up/log-down trapezoidal integration was used, and concentration data was uniformly weighted.
Plasma concentrations were obtained at regular intervals following a single subcutaneous dose in rats. […] Plasma samples were taken over the regular time intervals and assayed for injected compound as described. […] Concentration vs time curves were evaluated by noncompartmental analysis (Pharsight, version 4.1). Values shown are averages (+/−standard deviation). Cmax: maximum concentration; terminal t1/2: terminal half-life; AUC0->inf: area under the concentration-time curve extrapolated to infinity; MRT: mean residence time; Cl/f: apparent total, plasma clearance; Vz/f: apparent volume of distribution during terminal phase.

[4] = Pharmacodynamic studies, bodyweight gain in hypophysectomized rats; type: in vivo, Hypophysectomized male Sprague-Dawley rats; conditions: s.c., compared with 30 KPEG-pAF92(his)hGH, p<0.0005
Experimental: Hypophysectomized male Sprague-Dawley rats were obtained from Charles River Laboratories. Pituitaries were surgically removed at 3-4 weeks of age. Animals were allowed to acclimate for a period of three weeks, during which time bodyweight was monitored. Animals with a bodyweight gain of 0-8 g over a period of seven days before the start of the study were included and randomized to treatment groups. Rats were administered either a bolus dose or daily dose subcutaneously. Throughout the study rats were daily and sequentially weighed, anesthetized, bled, and dosed (when applicable). Blood was collected from the orbital sinus using a heparinized capillary tube and placed into an EDTA coated microfuge tube. Plasma was isolated by centrifugation and stored at −80° C. until analysis. The mean (+/−S.D.) plasma concentrations were plotted versus time intervals.
The peptide IGF-1 is a member of the family of somatomedins or insulin-like growth factors. IGF-1 mediates many of the growth-promoting effects of growth hormone. IGF-1 concentrations were measured using a competitive binding enzyme immunoassay kit against the provided rat/mouse IGF-1 standards (Diagnostic Systems Laboratories). Hypophysectomized rats. Rats (n=5-7 per group) were given either a single dose or daily dose subcutaneously. Animals were sequentially weighed, anesthetized, bled, and dosed (when applicable) daily.

Molecule | Intracellular Concentration [1] | AUC0->inf [3] | Cl/f [3] | Cmax [3] | MRT [3] | Terminal t1/2 [3] | further results
CC(=O)c1ccc(C[C@H](N)C(=O)O)cc1 | 600 µM |  |  |  |  |  | RS test [2]: ✓
CC(=O)COc1ccc(C[C@H](N)C(=O)O)cc1 | 1000 to 1800 µM |  |  |  |  |  | 
CC(C)=NOCOc1ccc(C[C@H](N)C(=O)O)cc1 | 60 µM |  |  |  |  |  | 
CC(C)=NOCc1ccc(C[C@H](N)C(=O)O)cc1 | 300 µM |  |  |  |  |  | 
CC(=O)N/N=C/c1ccc(C[C@H](N)C(=O)O)cc1 | 30 µM |  |  |  |  |  | RS test [2]: ✓
CC(=O)C(=O)Nc1ccc(C[C@H](N)C(=O)O)cc1 | 376 µM |  |  |  |  |  | 
CC(=O)C(=O)c1ccc(C[C@H](N)C(=O)O)cc1 |  |  |  |  |  |  | Intracellular Concentration ([1]; remark in words): Reduced [M + 2]
CC(=O)CC(=O)c1ccc(C[C@H](N)C(=O)O)cc1 |  |  |  |  |  |  | RS test [2]: Meta- bolized
CC(=O)CNC(=O)c1ccc(C[C@H](N)C(=O)O)cc1 | 628 µM |  |  |  |  |  | Intracellular Concentration ([1]; remark in words): little reduced
N[C@@H](Cc1ccc2c(c1)NC(=O)C2=O)C(=O)O |  |  |  |  |  |  | Oxime Stability pH 4-8 (Oxime stability pH 4-8): − −
CC(=O)C(F)(F)c1ccc(C[C@H](N)C(=O)O)cc1 | 279 µM |  |  |  |  |  | 
30KPEG-pAF35(his)hGH: "hGH polypeptides comprising p-acetyl-phenylalanine covalently-linked to 30 kDa PEG at positions 35 and 92" |  | 39,918 (±22,683) ng × hr/ml | 35 (±27) ml/hr/kg | 1,885 (±1,011) ng/ml | 19.16 (±4.00) h | 4.85 (±0.80) h | bodyweight gain at day 9 [4]: greater weight gain
30KPEG-pAF131(his)hGH: "His-tagged hGH polypeptide comprising non-natural amino acid p-acetyl-phenylalanine covalently linked to 30 kDa PEG at each of six different positions" |  | 6,978 (±2,573) ng × hr/ml | 161 (±61) ml/hr/kg | 497 (±187) ng/ml | 14.28 (±0.92) h | 4.41 (±0.27) h | 
30KPEG-pAF134(his)hGH: "His-tagged hGH polypeptide comprising non-natural amino acid p-acetyl-phenylalanine covalently linked to 30 kDa PEG at each of six different positions" |  | 7,304 (±2,494) ng × hr/ml | 151 (±63) ml/hr/kg | 566 (±204) ng/ml | 12.15 (±1.03) h | 4.36 (±0.33) h | 
30KPEG-pAF143(his)hGH: "His-tagged hGH polypeptide comprising non-natural amino acid p-acetyl-phenylalanine covalently linked to 30 kDa PEG at each of six different positions" |  | 17,494 (±3,654) ng × hr/ml | 59 (±11) ml/hr/kg | 803 (±149) ng/ml | 18.83 (±1.59) h | 6.02 (±1.43) h | 
30KPEG-pAF145(his)hGH: "His-tagged hGH polypeptide comprising non-natural amino acid p-acetyl-phenylalanine covalently linked to 30 kDa PEG at each of six different positions" |  | 13,162 (±6,726) ng × hr/ml | 88 (±29) ml/hr/kg | 634 (±256) ng/ml | 17.82 (±0.56) h | 5.87 (±0.09) h | 
